Residue numbers refer to the chain shown, from its start.

For orientation: Kd means the equilibrium constant for the complex coming apart. Usually koff stands for the first-order rate constant of dissociation. By kon is commonly meant the rate constant with which the complex forms.

The target in assay [1] is recombinant mouse FGFR2b (mouse) (UniProt P21803). Kind of assay: ELISA, antibody 1ug/mL. Background: In an ELISA, binding on a coated surface is turned into a signal by an enzyme label.
The target of the next assay is FGFR1 (acro) (UniProt P11362). Put plainly: ELISA, antibody 10 µg/mL.
The target in assay [2] is recombinant mouse FGFR2b (mouse) (UniProt P21803). Put plainly: BLI, antibody on AHC2 sensor. (In general: Biolayer interferometry detects binding as a change in optical thickness at a sensor tip.)
In assay [3] the target is extracellular domain of the FGFR2b protein (NP_075259.4) (UniProt P21802). Put plainly: phage ELISA.
extracellular domain of the FGFR2b protein (NP_075259.4), sequence (P21802 other isoform, or with tags, fused parts or gaps): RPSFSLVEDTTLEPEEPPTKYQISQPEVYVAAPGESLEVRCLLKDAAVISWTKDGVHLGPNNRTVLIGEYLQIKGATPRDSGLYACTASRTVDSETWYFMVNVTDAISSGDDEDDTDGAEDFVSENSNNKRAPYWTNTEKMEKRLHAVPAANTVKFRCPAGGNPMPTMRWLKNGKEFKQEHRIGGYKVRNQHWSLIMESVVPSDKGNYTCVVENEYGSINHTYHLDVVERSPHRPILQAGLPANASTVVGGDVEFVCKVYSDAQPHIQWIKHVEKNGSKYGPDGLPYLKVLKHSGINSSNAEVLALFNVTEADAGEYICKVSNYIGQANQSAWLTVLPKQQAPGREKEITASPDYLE

FGFR1 (acro), sequence (P11362 22-376): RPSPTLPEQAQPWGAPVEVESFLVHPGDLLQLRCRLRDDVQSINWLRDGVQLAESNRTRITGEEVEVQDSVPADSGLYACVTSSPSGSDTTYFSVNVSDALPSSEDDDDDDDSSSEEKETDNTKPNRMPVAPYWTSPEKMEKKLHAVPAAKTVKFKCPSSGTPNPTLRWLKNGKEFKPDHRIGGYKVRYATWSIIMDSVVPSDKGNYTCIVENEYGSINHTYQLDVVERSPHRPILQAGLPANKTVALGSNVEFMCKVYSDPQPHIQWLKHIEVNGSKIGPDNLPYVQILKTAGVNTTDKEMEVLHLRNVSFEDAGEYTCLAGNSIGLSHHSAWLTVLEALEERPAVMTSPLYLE
recombinant mouse FGFR2b (mouse), sequence (P21803 22-377): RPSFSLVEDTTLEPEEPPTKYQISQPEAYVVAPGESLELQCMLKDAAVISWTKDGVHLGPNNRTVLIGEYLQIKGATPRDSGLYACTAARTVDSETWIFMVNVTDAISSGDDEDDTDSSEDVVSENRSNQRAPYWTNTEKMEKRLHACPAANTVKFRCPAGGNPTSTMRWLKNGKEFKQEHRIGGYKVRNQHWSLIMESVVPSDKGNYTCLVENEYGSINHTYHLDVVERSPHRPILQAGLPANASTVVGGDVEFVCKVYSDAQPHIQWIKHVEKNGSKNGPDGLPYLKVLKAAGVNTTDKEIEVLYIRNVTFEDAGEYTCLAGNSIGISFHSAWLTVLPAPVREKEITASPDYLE

B1: 2B1 scFv-Fc (Fc fusion)
chain: EVQLQQSGAELVKPGASVKMSCKASGYTFASYNLHWVKQTPGQGLEWIGLIYPENGDTSYNQKFKGKATLTADKSSSTAYIQLSSLTSEDSAVYFCARGGFDYWGQGTSLTVSSGGGGSGGGGSGGGGSDIQMIQSPASLSVSVGETVTITCRASENIYSNLAWYQQKQGKSPQLLVYNAKTLADGVPSRFSGSGSGTQYSLKINSLQPEDFGSYYCQHFWSTPYTFGGGTKLEIKESKYGPPCPPCPAPEAAGGPSVFLFPPKPKDTLMISRTPEVTCVVVDVSQEDPEVQFNWYVDGVEVHNAKTKPREEQFNSTYRVVSVLTVLHQDWLNGKEYKCKVSNKGLPSSIEKTISKAKGQPREPQVYTLPPSQEEMTKNQVSLTCLVKGFYPSDIAVEWESNGQPENNYKTTPPVLDSDGSFFLYSKLTVDKSRWQEGNVFSCSVMHEALHNHYTQKSLSLSLG
For the molecule B1, the OD (450 nm) value in assay [1] turned out to be 2.72. The OD (450 nm) value in the assay with FGFR1 (acro) was found to be 0.076. In addition, in assay [2], the Kd was 23 nM, the koff is 0.00126 s⁻¹ and the kon stood at 54800 M⁻¹ s⁻¹.

B2: 3A12 scFv-Fc (Fc fusion)
chain: EVQLQQSGAELVKPGASVKMSCKASGYTFSFYNVHWVRQTPGQGLEWIGLIYPDNGDTSYNQKFKAKATLTADKSSSAAYMQLSSLTSEDSAVYYCARGGFDYWGQGTSLTVSSGGGGSGGGGSGGGGSDIVMTQSHKFMSTSVGDRVNITCKASQDVSTAVAWYQQKPGQSPKLLIYSASYRYSGVPDRFTGSGSGTDFTFTISSVQAEDLAVYYCQQHYSTPYTFGGGTKLEMKESKYGPPCPPCPAPEAAGGPSVFLFPPKPKDTLMISRTPEVTCVVVDVSQEDPEVQFNWYVDGVEVHNAKTKPREEQFNSTYRVVSVLTVLHQDWLNGKEYKCKVSNKGLPSSIEKTISKAKGQPREPQVYTLPPSQEEMTKNQVSLTCLVKGFYPSDIAVEWESNGQPENNYKTTPPVLDSDGSFFLYSKLTVDKSRWQEGNVFSCSVMHEALHNHYTQKSLSLSLG
On to B2, for which the OD (450 nm) value in assay [1] was 2.91. Also, the OD (450 nm) value in the assay with FGFR1 (acro) is 0.076. Moreover, in assay [2], the Kd was 10.7 nM, the koff was found to be 0.000485 s⁻¹ and the kon is 45400 M⁻¹ s⁻¹.

B3: 3D6 scFv-Fc (Fc fusion)
chain: QVQLQQSGAELVKPGASVKMSCKASGYTFRYYNMHWVKRTPGQGLEWIGLIYPDNGDTSYNQKFKGKATLTADTSSSTAYMQLSSLTSEDSAVYYCARGGLDYWGQGTSLTVSSGGGGSGGGGSGGGGSDIQMTQSPASLSVSVGETVTITCRASENIYSNLAWYQQKQGKSPQLLVYNAKTLADGVPSRFSGSGSGTQYSLKINSLQPEDFGSYYCQHFWSTPFTFGSGTKLELKESKYGPPCPPCPAPEAAGGPSVFLFPPKPKDTLMISRTPEVTCVVVDVSQEDPEVQFNWYVDGVEVHNAKTKPREEQFNSTYRVVSVLTVLHQDWLNGKEYKCKVSNKGLPSSIEKTISKAKGQPREPQVYTLPPSQEEMTKNQVSLTCLVKGFYPSDIAVEWESNGQPENNYKTTPPVLDSDGSFFLYSKLTVDKSRWQEGNVFSCSVMHEALHNHYTQKSLSLSLG
B3: the OD (450 nm) value in assay [1] amounted to 2.59. This molecule also returned an OD (450 nm) value with FGFR1 (acro) of 0.693. Moreover, in assay [2], the Kd is 21.7 nM, the koff is 0.000593 s⁻¹ and the association rate constant (kon) was 27400 M⁻¹ s⁻¹.

B4: 3C7 scFv-Fc (Fc fusion)
chain: EIQLQQSGAELVKPGASVKMSCKASGYIFRNYYIHWVKRTPGQGLEWIGAIYPDNGDTSYNQRFKVKATLTADTSSSTAYMQLSSLTSEDSAVYYCARAFTYWGQGTTLTVSSGGGGSGGGGSGGGGSDIQMIQSPASLSASVGETVTITCGASENIYGALNWYQRKQGKSPQLLIYGATNLADGMSSRFSGSGSGRQYSLKISSLHPDDVATYYCQNVLSTPYTFGGGTKLEIKESKYGPPCPPCPAPEAAGGPSVFLFPPKPKDTLMISRTPEVTCVVVDVSQEDPEVQFNWYVDGVEVHNAKTKPREEQFNSTYRVVSVLTVLHQDWLNGKEYKCKVSNKGLPSSIEKTISKAKGQPREPQVYTLPPSQEEMTKNQVSLTCLVKGFYPSDIAVEWESNGQPENNYKTTPPVLDSDGSFFLYSKLTVDKSRWQEGNVFSCSVMHEALHNHYTQKSLSLSLG
As to B4, the OD (450 nm) value in assay [1] is 3.1. The molecule further came in with an OD (450 nm) value in the assay with FGFR1 (acro) of 0.077. Moreover, in assay [2], the Kd is 8.71 nM, the koff is 0.000365 s⁻¹ and the on-rate constant (kon) came out at 41900 M⁻¹ s⁻¹.

B5: 3E7 scFv-Fc (Fc fusion)
chain: QVQLQQSGAELVKPGASVKMSCKASGYTFTIYNIHWVRQTPGQGLEWIGLIYPDNGDTSYNQKFKAKATLTADKSSSTAYMQLSSLTSEDSAVYYCARGGFDYWGQGTTLTVSSGGGGSGGGGSGGGGSNIVMTQSQKFMSTSVGDRVSVTCKASQNVGTNVAWYQQKPGQSPKALIYSASYRYSGVPDRFTGSGSGTDFTLTISGVQAEDLADYYCQQHYNTPYTFGGGTKLEIKESKYGPPCPPCPAPEAAGGPSVFLFPPKPKDTLMISRTPEVTCVVVDVSQEDPEVQFNWYVDGVEVHNAKTKPREEQFNSTYRVVSVLTVLHQDWLNGKEYKCKVSNKGLPSSIEKTISKAKGQPREPQVYTLPPSQEEMTKNQVSLTCLVKGFYPSDIAVEWESNGQPENNYKTTPPVLDSDGSFFLYSKLTVDKSRWQEGNVFSCSVMHEALHNHYTQKSLSLSLG
With B5, the OD (450 nm) value in assay [1] stood at 2.29. The OD (450 nm) value with FGFR1 (acro) was 0.093. For the same molecule, in assay [2], the Kd turned out to be 40.9 nM, the koff amounted to 0.00175 s⁻¹ and the kon came to 42800 M⁻¹ s⁻¹.

B6: 3C7 scFv displayed on phage (scFv)
scFv: EIQLQQSGAELVKPGASVKMSCKASGYIFRNYYIHWVKRTPGQGLEWIGAIYPDNGDTSYNQRFKVKATLTADTSSSTAYMQLSSLTSEDSAVYYCARAFTYWGQGTTLTVSSGGGGSGGGGSGGGGSDIQMIQSPASLSASVGETVTITCGASENIYGALNWYQRKQGKSPQLLIYGATNLADGMSSRFSGSGSGRQYSLKISSLHPDDVATYYCQNVLSTPYTFGGGTKLEIK
In assay [3], B6 had an OD (450 nm) value of 2.02.

B7: 3F10 scFv-Fc (Fc fusion)
chain: EVQLQQSGAELVKPGASVKMSCKASGYTFSFYNIHWVRQTPGQGLEWIGLIYPDNGDTSYNQKFKAKATLTADKSSSTAYMQLSSLTSEDSAVYYCARGGFDYWGQGTTLTVSSGGGGSGGGGSGGGGSDVLMTQSPASLSASVGETVTITCGASENIYGALNWYQRKQGKSPQLLIYGATNLADGMSSRFSGSGSGRQYSLKISSLHPDDVATYYCQNVLSTPYTFGGGTKLEIKESKYGPPCPPCPAPEAAGGPSVFLFPPKPKDTLMISRTPEVTCVVVDVSQEDPEVQFNWYVDGVEVHNAKTKPREEQFNSTYRVVSVLTVLHQDWLNGKEYKCKVSNKGLPSSIEKTISKAKGQPREPQVYTLPPSQEEMTKNQVSLTCLVKGFYPSDIAVEWESNGQPENNYKTTPPVLDSDGSFFLYSKLTVDKSRWQEGNVFSCSVMHEALHNHYTQKSLSLSLG
For B7, the OD (450 nm) value in assay [1] stood at 2.87. Also, in the assay with FGFR1 (acro), the OD (450 nm) value was determined as 0.086. Moreover, in assay [2], the Kd was determined as 52.5 nM, the koff amounted to 0.00217 s⁻¹ and the kon came out at 41300 M⁻¹ s⁻¹.

B8: 3H6 scFv-Fc (Fc fusion)
chain: QVQLQQSGAELVKPGASVKMSCKASGYTFSFYNIHWVRQTPGQGLEWIGLIYPDNGDTSYNQKFKAKATLTADKSSSTAYMQLSSLTSEDSAVYYCARGGFDYWGQGTTLTVSSGGGGSGGGGSGGGGSDIQMTQSPASLSASVGETVTITCRASENIYSYLAWYQQKQGKSPQLLVYNAKTLAEGVPSRFSGSGSGTQFSLKINSLQPEDFGSYYCQHHYGTPYTFGGGTKLEMKESKYGPPCPPCPAPEAAGGPSVFLFPPKPKDTLMISRTPEVTCVVVDVSQEDPEVQFNWYVDGVEVHNAKTKPREEQFNSTYRVVSVLTVLHQDWLNGKEYKCKVSNKGLPSSIEKTISKAKGQPREPQVYTLPPSQEEMTKNQVSLTCLVKGFYPSDIAVEWESNGQPENNYKTTPPVLDSDGSFFLYSKLTVDKSRWQEGNVFSCSVMHEALHNHYTQKSLSLSLG
As for B8, the OD (450 nm) value in assay [1] stood at 2.39. Moreover, in the assay with FGFR1 (acro), the OD (450 nm) value amounted to 0.077. Also, in assay [2], the Kd worked out at 43.7 nM, the koff is 0.00156 s⁻¹ and the kon amounted to 35700 M⁻¹ s⁻¹.

B9: 3F5 scFv-Fc (Fc fusion)
chain: EIQLQQSGAELVKPGASVKMSCKASGYTFRYYNMHWVKRTPGQGLEWIGLIYPDNGDTSYNQKFKGKATLTADTSSSTAYMQLSSLTSEDSAVYYCARGGLDYWGQGTTLTVSSGGGGSGGGGSGGGGSDIVLTQSPASLSASVGETVTITCGASENIYGALNWYQRKQGKSPQLLIYGATNLADGMSSRFSGSGSGRQYSLKISSLHPDDVATYYCQNVLSTPYTFGGGTKLEIKESKYGPPCPPCPAPEAAGGPSVFLFPPKPKDTLMISRTPEVTCVVVDVSQEDPEVQFNWYVDGVEVHNAKTKPREEQFNSTYRVVSVLTVLHQDWLNGKEYKCKVSNKGLPSSIEKTISKAKGQPREPQVYTLPPSQEEMTKNQVSLTCLVKGFYPSDIAVEWESNGQPENNYKTTPPVLDSDGSFFLYSKLTVDKSRWQEGNVFSCSVMHEALHNHYTQKSLSLSLG
In the case of B9, the OD (450 nm) value in assay [1] is 2.38. The OD (450 nm) value with FGFR1 (acro) turned out to be 0.108. For the same molecule, in assay [2], the Kd is 36.1 nM, the off-rate (koff) was found to be 0.00162 s⁻¹ and the kon was found to be 44800 M⁻¹ s⁻¹.

B10: 3C9 scFv-Fc (Fc fusion)
chain: B9 chain with T28I, V132Q, L133M, T134I
Regarding B10, in assay [1], the OD (450 nm) value worked out at 2.57. Also, the OD (450 nm) value with FGFR1 (acro) turned out to be 0.113. In addition, in assay [2], the Kd is 9.95 nM, the koff is 0.000483 s⁻¹ and the kon was 48500 M⁻¹ s⁻¹.

B11: 3B7 scFv displayed on phage (scFv)
scFv: EVQLQQSGAELVKPGASVKMSCKASGYTFRYYNMHWVKRTPGQGLEWIGLIYPDNGDTSYNQKFKGKATLTADTSSSTAYMQLSSLTSEDSAVYYCARGGFDYWGQGTTLTVSSGGGGSGGGGSGGGGSDIQMTQSPASLSASVGETVTITCGASENIYGALNWYQRKQGKSPQLLIYGATNLADGMSSRFSGSGSGRQYSLKISSLHPDDVATYYCQNVLSTPYTFGGGTKLELK
In assay [3], B11 yielded an OD (450 nm) value of 2.03.

B12: 3C9 scFv displayed on phage (scFv)
scFv: B11 scFv with V2I, T28I, F101L, T134I, L235I
Turning to B12, the OD (450 nm) value in assay [3] turned out to be 2.08.
